One substance from US20240207377A1 can be followed below.

The target of the assay is Recombinant Human TACE/ADAM17 (930-ADB, R&D Systems) (human) (UniProt P78536). Nature of the assay: cell-based or functional assay.
Chain of UniProt P78536 (P78536 215-671 limits assumed): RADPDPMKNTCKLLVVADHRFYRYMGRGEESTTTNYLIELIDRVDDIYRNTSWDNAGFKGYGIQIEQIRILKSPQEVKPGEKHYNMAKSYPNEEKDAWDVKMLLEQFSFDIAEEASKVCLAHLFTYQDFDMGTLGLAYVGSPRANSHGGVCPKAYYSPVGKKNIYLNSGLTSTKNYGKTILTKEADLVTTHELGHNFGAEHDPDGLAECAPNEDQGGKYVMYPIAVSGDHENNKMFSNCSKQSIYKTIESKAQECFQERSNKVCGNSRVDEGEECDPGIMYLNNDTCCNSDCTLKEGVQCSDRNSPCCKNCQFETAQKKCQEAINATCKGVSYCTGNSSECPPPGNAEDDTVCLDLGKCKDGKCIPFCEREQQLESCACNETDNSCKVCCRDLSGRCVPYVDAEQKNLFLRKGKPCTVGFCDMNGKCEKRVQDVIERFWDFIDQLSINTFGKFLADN

Consider “human alpha-1-antitrypsin (AAT) (Sigma Aldrich, batch A6150) (from UniProt P01009 25-418)”, for which the TACE activity in a cell-free assay (fluorogenic peptide substrate Mca-PLAQAV-Dpa-RSSSR-NH2), IC50 stood at 15.3 µM.
